Square brackets hold non-standard residues; d marks the D form. Ends that are not written are not given here. * marks the point of attachment. 5(6)‑FAM = 5(6)-carboxyfluorescein; pS = N[C@@H](COP(=O)(O)O)C(=O)O; Tfa = O=C(C(F)(F)F)*
What was measured:
[1] = mouse, in vivo
Method: Three kinds of fluorescein (FAM)-labeled peptides shown in Table 7 were purchased from Eurofins Genomics K.K. 1 mg of each of the peptides was separately dissolved in 4 mL of PBS to prepare an administration solution (0.25 mg/mL).
Eighteen Crl:CD1 (ICR) mice (male) (Jackson Laboratory Japan, Inc.) were subjected to 7 or more days of adaptation after their arrival and receipt, then divided by three per group into the six groups as in Table 8, and used in the following experiments. The administration solution (1 mg/4 mL/kg) was administered to the tail vein of a non-fasting mouse through use of a syringe equipped with an injection needle. A dose for each individual was calculated from a body weight measured on the day of the administration.
After the completion of the administration, about 0.1 mL of blood was collected from a jugular vein without anesthesia at the predetermined time points of collection shown in Table 8 through use of a heparin-treated syringe equipped with an injection needle. At the final time point of collection, whole blood was collected from a posterior aorta under isoflurane anesthesia. The collected blood was promptly transferred to a polypropylene tube and cooled on ice. The collected whole blood was centrifuged (about 10,000×g, 3 minutes, 4° C.), and the plasma sample was promptly dispensed and light-shielded in a sample storage container. The plasma samples were cryopreserved until measurement (control temperature: about −80° C.).
A freeze-thawed plasma sample (10 μL) was diluted 10-fold with PBS (90 μL), and measured for its fluorescence intensity with a plate reader (SPARK™ multi-detection mode microplate reader, Tecan Group Ltd.) (excitation wavelength: 495 nm; emission wavelength: 520 nm). […] The peptide concentrations in plasma thus obtained were logarithmically plotted against post-administration time, four time points including the final blood collection point were exponentially approximated (Microsoft Excel, Microsoft Corporation), and an elimination half-life was calculated from a slope of the straight line. […]

[2] = Average particle diameter of peptide assembly by dynamic light scattering; format: physicochemical; details: 10 mM HEPES, 150 mM NaCl buffer (pH 7); 40 mM DMSO stock diluted 100-fold; stood overnight; 25° C.; main peak of scattering intensity
Method: 5 mg of each of the peptides of Examples 1-1 to 1-5 and Reference Examples 1-1 to 1-8 was dissolved in dimethyl sulfoxide (DMSO) to provide a stock solution (40 mM). To a 10 mM HEPES and 150 mM NaCl buffer (pH 7) under stirring with a micromixer (E-36, Taitec Corporation), 4 μL of the stock solution was dropped to be diluted 100-fold. The dilution was vortexed and then left to stand still at room temperature overnight. Then, 200 μL of the dilution was used as a measurement sample and measurement of particle diameter distribution was performed at 25° C. by dynamic light scattering with Litesizer 500 (Anton Paar GmBH). The results determined by defining the main peak of a scattering intensity as the average particle diameter of an assembly are shown in Table 3. Provided that, when a polydispersity index was more than 20%, the main peak was determined with further reference to a volume-based particle diameter distribution.

[3] = Binding affinity to first target (HA): adsorption isotherm on hydroxyapatite beads; details: hydroxyapatite magnetic beads; 10 mM HEPES (pH 7.4)/1% DMSO; 4° C., 4 hours; tryptophan fluorescence; read-out: Dissociation constant (KD)
Method: The peptides of Examples 1-2 and 1-5 and a HA-binding peptide A (DSpSEEKW: SEQ ID NO: 17) forming the HA binding site of each of the peptides were each evaluated for peptide binding affinity to hydroxyapatite beads (1 μm BcMag™ Hydroxyapatite Magnetic Particles (Bioclone Inc., catalog No. FO-101)). Specifically, the beads were weighed and suspended in a 100 mM sodium phosphate buffer (pH 7.4)/20% ethanol so as to have 30 mg/mL. 267 μL of the suspension of the beads ultrasonicated to be dispersed homogenously was dispensed in a 1.5 mL tube. The beads were fixed with a magnetic stand (Takara Bio Inc., Magnetic Stand (6 tubes), product code: 5328), followed by removal of a supernatant, and then 100 μL of a peptide solution was added. The peptide solution was prepared by diluting the 100 mM stock solution (in DMSO) to 40 μM with 10 mM HEPES (pH 7.4)/1% DMSO and further serially diluting the solution from 4-fold to 5-fold. After stirring at 4° C. for 4 hours, the tube was stood in the magnetic stand for fixing the beads, and a supernatant was recovered. A peptide concentration in the supernatant was measured with a plate reader (VARIO-SCAN, Thermo Fischer Scientific Inc.) based on a fluorescence intensity derived from tryptophan in a sequence (excitation wavelength: 280 nm; emission wavelength: 355 nm) through use of 50 μL of the supernatant. The amount of the peptide bound to the beads was determined by subtracting the peptide concentration in the supernatant from a total peptide concentration, and the adsorption isotherm thus obtained was subjected to curve fitting to a theoretical formula (Microsoft Excel, Microsoft Corporation), thereby determining a dissociation constant KD of the peptide to the hydroxyapatite beads.

[4] = molecular target: Arg-gingipain (Rgp); assay: Binding affinity to second target (Rgp) by SPR (Biacore-T100); details: immobilized Rgp, 10 mM HEPES (pH 7.4), 150 mM NaCl, 0.05% Tween, 0.2% DMSO, peptide 25-1,600 nM, read-out: Dissociation constant (KD)
Method: The peptide of Example 1-2 and an Rgp-binding peptide A (RRKRR: SEQ ID NO: 16) forming the Rgp binding site of the peptide were each measured for its binding affinity to Rgp by SPR using “Biacore-T100” (GE Healthcare). The measurement was performed according to a common method. Specifically, the measurement of the peptide of Example 1-2 was performed through bonding streptavidin (Extravidin SIGMA E2511) to a chip (CM5 sensor chip) by amine coupling, and then immobilizing Rgp biotinylated with a 20-fold molar ratio of an NHS-biotinylation reagent (EZ-Link™ Sulfo-NHS-SS-Biotin, Thermo Fischer Scientific Inc.). Meanwhile, the measurement of the Rgp-binding peptide A was performed through directly immobilizing Rgp on a CM5 sensor chip by amine coupling from the viewpoint of measurement sensitivity.
Next, the peptide stock solution (in DMSO) was diluted with a running buffer (10 mM HEPES (pH 7.4), 150 mM NaCl, 0.05% Tween, 0.2% DMSO) to prepare peptide solutions having final peptide concentrations of 25 nM, 100 nM, 400 nM, and 1,600 nM. Those peptide solutions having the four concentrations were used to provide sensorgrams indicating weight changes caused by binding between Rgp immobilized on the chip and the peptide. […]

[5] = pH dependency of particle diameter of peptide assembly (dynamic light scattering); format: physicochemical; details: 25° C.; for Average particle diameter, pH 6: 10 mM MES, 150 mM NaCl buffer (pH 6.0); for Average particle diameter, pH 7: dilution A (pH 6.0) diluted with 10 mM HEPES, 150 mM NaCl buffer (pH 7.4)
Method: 5 mg of each of the peptides of Examples 2-1 and 2-2 was dissolved in DMSO to provide a stock solution (50 mg/mL). To a 10 mM MES and 150 mM NaCl buffer (pH 6.0) under stirring with a micromixer (E-36, Taitec Corporation), 4 μL of the stock solution was dropped to be diluted 100-fold. Thus, a dilution A was obtained. The dilution A was vortexed and then left to stand still at room temperature overnight. 100 μL of the dilution A was used and diluted with 300 μL of the same MES buffer or a 10 mM HEPES and 150 mM NaCl buffer (pH 7.4), and stirred for 1 hour. Thus, a dilution B was obtained. 200 μL of each of the dilution A and the dilution B after having been left to stand still overnight was used as a measurement sample and measurement of particle diameter distribution was performed at 25° C. with Litesizer 500 (Anton Paar GmBH).

[6] = molecular target: Arg-gingipain (Rgp); assay: SPR (Biacore T100); Rgp amine-coupled directly to CM5 chip; peptide as analyte at 25-1,600 nM
[7] = molecular target: Arg-gingipain (Rgp); assay: SPR (Biacore T100); biotinylated Rgp captured on streptavidin-coupled CM5 chip; peptide as analyte at 25-1,600 nM; KD per peptide

## 5(6)-FAM-GYSEWRKWEL ({5(6)‑FAM}-GYSEWRKWEL-NH2) [Comparative Example 1]
[1]
  Elimination half-life: 1.3 h

## 5(6)-FAM-GYSEWRKWEL-LLLLLL ({5(6)‑FAM}-GYSEWRKWELLLLLLL-NH2) [Comparative Example 2]
[1]
  Elimination half-life: 16.7 h

## 5(6)-FAM-GYSEWRKWEL-LLLLLLGG-HWRGWV ({5(6)‑FAM}-GYSEWRKWELLLLLLLGGHWRGWV-NH2) [Example 3-1]
[1]
  Elimination half-life: 133 h

## DSpSEEK-AAEAAEAA-RRK(Tfa)RR (DS[pS]EEKAAEAAEAARRK(Tfa)RR-NH2; N-terminus assumed; SMILES C[C@H](NC(=O)[C@H](C)NC(=O)[C@H](CCC(=O)O)NC(=O)[C@H](C)NC(=O)[C@H](C)NC(=O)[C@H](CCCCN)NC(=O)[C@H](CCC(=O)O)NC(=O)[C@H](CCC(=O)O)NC(=O)[C@H](COP(=O)(O)O)NC(=O)[C@H](CO)NC(=O)[C@@H](N)CC(=O)O)C(=O)N[C@@H](CCC(=O)O)C(=O)N[C@@H](C)C(=O)N[C@@H](C)C(=O)N[C@@H](CCCNC(=N)N)C(=O)N[C@@H](CCCNC(=N)N)C(=O)N[C@@H](CCCCNC(=O)C(F)(F)F)C(=O)N[C@@H](CCCNC(=N)N)C(=O)N[C@@H](CCCNC(=N)N)C(N)=O) [Example 1-4]
[2]
  Average particle diameter: 450 nm

## DSpSEEKW (DS[pS]EEKW) [HA-binding peptide A, reference compound]
[3]
  Kd: 710 nM

## DSpSEEKW-LLELLELL-KGKILRPR (DS[pS]EEKWLLELLELLKGKILRPR-NH2; N-terminus assumed; SMILES CC[C@H](C)[C@H](NC(=O)[C@H](CCCCN)NC(=O)CNC(=O)[C@H](CCCCN)NC(=O)[C@H](CC(C)C)NC(=O)[C@H](CC(C)C)NC(=O)[C@H](CCC(=O)O)NC(=O)[C@H](CC(C)C)NC(=O)[C@H](CC(C)C)NC(=O)[C@H](CCC(=O)O)NC(=O)[C@H](CC(C)C)NC(=O)[C@H](CC(C)C)NC(=O)[C@H](Cc1c[nH]c2ccccc12)NC(=O)[C@H](CCCCN)NC(=O)[C@H](CCC(=O)O)NC(=O)[C@H](CCC(=O)O)NC(=O)[C@H](COP(=O)(O)O)NC(=O)[C@H](CO)NC(=O)[C@@H](N)CC(=O)O)C(=O)N[C@@H](CC(C)C)C(=O)N[C@@H](CCCNC(=N)N)C(=O)N1CCC[C@H]1C(=O)N[C@@H](CCCNC(=N)N)C(N)=O) [Example 1-5]
[2]
  Average particle diameter: 5 nm
[3]
  Kd: < 40 nM

## DSpSEEKW-LLELLELL-RRKRR (DS[pS]EEKWLLELLELLRRKRR-NH2; N-terminus assumed; SMILES CC(C)C[C@H](NC(=O)[C@H](CC(C)C)NC(=O)[C@H](CCC(=O)O)NC(=O)[C@H](CC(C)C)NC(=O)[C@H](CC(C)C)NC(=O)[C@H](CCC(=O)O)NC(=O)[C@H](CC(C)C)NC(=O)[C@H](CC(C)C)NC(=O)[C@H](Cc1c[nH]c2ccccc12)NC(=O)[C@H](CCCCN)NC(=O)[C@H](CCC(=O)O)NC(=O)[C@H](CCC(=O)O)NC(=O)[C@H](COP(=O)(O)O)NC(=O)[C@H](CO)NC(=O)[C@@H](N)CC(=O)O)C(=O)N[C@@H](CCCNC(=N)N)C(=O)N[C@@H](CCCNC(=N)N)C(=O)N[C@@H](CCCCN)C(=O)N[C@@H](CCCNC(=N)N)C(=O)N[C@@H](CCCNC(=N)N)C(N)=O) [Example 1-2]
[2]
  Average particle diameter: 250 nm
[4]
  Kd: 1.3 nM
[3]
  Kd: 1400 nM

## DSpSEEKW-WEWWEWW-RRK(Tfa)RR (DS[pS]EEKWWEWWEWWRRK(Tfa)RR-NH2; N-terminus assumed; SMILES N=C(N)NCCC[C@H](NC(=O)[C@H](CCCNC(=N)N)NC(=O)[C@H](CCCCNC(=O)C(F)(F)F)NC(=O)[C@H](CCCNC(=N)N)NC(=O)[C@H](CCCNC(=N)N)NC(=O)[C@H](Cc1c[nH]c2ccccc12)NC(=O)[C@H](Cc1c[nH]c2ccccc12)NC(=O)[C@H](CCC(=O)O)NC(=O)[C@H](Cc1c[nH]c2ccccc12)NC(=O)[C@H](Cc1c[nH]c2ccccc12)NC(=O)[C@H](CCC(=O)O)NC(=O)[C@H](Cc1c[nH]c2ccccc12)NC(=O)[C@H](Cc1c[nH]c2ccccc12)NC(=O)[C@H](CCCCN)NC(=O)[C@H](CCC(=O)O)NC(=O)[C@H](CCC(=O)O)NC(=O)[C@H](COP(=O)(O)O)NC(=O)[C@H](CO)NC(=O)[C@@H](N)CC(=O)O)C(N)=O) [Example 1-3]
[2]
  Average particle diameter: 350 nm

## GRSHHKRK-LLELLELL-HRHHVQER (GRSHHKRKLLELLELLHRHHVQER; a peptide designed to have two hydrophilic regions and a hydrophobic region located therebetween) [Example 2-1]
[5]
  Average particle diameter, pH 6: 440 nm
  Average particle diameter, pH 7: 4 nm

## HHIRRKRQ-WWEWWEWW-HGDHHKSN (HHIRRKRQWWEWWEWWHGDHHKSN; a peptide designed to have two hydrophilic regions and a hydrophobic region located therebetween) [Example 2-2]
[5]
  Average particle diameter, pH 6: 4,400 nm
  Average particle diameter, pH 7: 210 nm

## KGKILRPR-AAAAAAAA (KGKILRPRAAAAAAAA-NH2) [1-8]
[2]
  Average particle diameter: >1,000 nm

## KGKILRPR-AAEAAEAA (KGKILRPRAAEAAEAA-NH2) [1-7]
[2]
  Average particle diameter: 520 nm

## KGKILRPR-FFFFFFFF (KGKILRPRFFFFFFFF-NH2) [1-4]
[2]
  Average particle diameter: 50 nm

## KGKILRPR-LLELLELL (KGKILRPRLLELLELL-NH2) [Reference Example 1-5]
[2]
  Average particle diameter: 5 nm

## KGKILRPR-LLLLLLLL (KGKILRPRLLLLLLLL-NH2) [1-1]
[2]
  Average particle diameter: 36 nm

## KGKILRPR-WWEWWEWW (KGKILRPRWWEWWEWW-NH2) [1-6]
[2]
  Average particle diameter: 10 nm

## KGKILRPR-WWWWWWWW (KGKILRPRWWWWWWWW-NH2) [1-3]
[2]
  Average particle diameter: 920 nm

## KGKILRPR-YYYYYYYY (KGKILRPRYYYYYYYY-NH2) [1-2]
[2]
  Average particle diameter: 210 nm

## RRKRR [Rgp-binding peptide A, reference compound]
[4]
  Kd: 400 nM

B1: Rgp-binding peptide A (RRKRR) (peptide)
peptide: RRKRR
[6]
  Kd: 400 nM

B2: peptide of Example 1-2 (DSpSEEKW-LLELLELL-RRKRR) (peptide)
peptide: DSSEEKWLLELLELLRRKRR
modifications: pS = phosphorylated serine (third residue of DSpSEEKW); C-terminal carboxyl group amidated
[7]
  Kd: 1.3 nM
